Here are results for five molecules from patent US20250019432A1.

Experiment [1] has as its target human siglec12 (human) (UniProt Q96PQ1). Kind of experiment: FACS U937.
The target of experiment [2] is siglec6 with C-terminal FLAG tag on Expi 293 cells (UniProt O43699). Kind of experiment: flow cytometry, transfected Expi 293, 500 nM.
Experiment [3] concerns the target siglec12 with C-terminal FLAG tag on Expi 293 cells (UniProt Q96PQ1). The experiment is described as follows: flow cytometry, transfected Expi 293, 500 nM.
Experiment [4] has as its target human siglec12 (human) (UniProt Q96PQ1). Kind of experiment: cell-based or functional assay.

Sequence of siglec6 with C-terminal FLAG tag on Expi 293 cells (O43699 27-453 limits assumed): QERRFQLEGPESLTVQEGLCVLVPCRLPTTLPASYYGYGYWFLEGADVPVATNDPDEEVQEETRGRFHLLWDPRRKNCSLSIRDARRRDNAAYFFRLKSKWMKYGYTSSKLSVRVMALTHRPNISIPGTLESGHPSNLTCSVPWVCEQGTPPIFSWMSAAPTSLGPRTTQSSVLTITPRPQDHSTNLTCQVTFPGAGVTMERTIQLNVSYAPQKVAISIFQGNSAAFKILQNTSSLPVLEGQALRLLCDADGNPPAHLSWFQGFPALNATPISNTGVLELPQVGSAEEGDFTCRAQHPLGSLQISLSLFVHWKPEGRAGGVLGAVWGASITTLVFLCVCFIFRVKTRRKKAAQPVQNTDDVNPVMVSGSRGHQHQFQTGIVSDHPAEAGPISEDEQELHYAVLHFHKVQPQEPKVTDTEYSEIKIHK
Sequence of siglec12 with C-terminal FLAG tag on Expi 293 cells (Q96PQ1 19-595): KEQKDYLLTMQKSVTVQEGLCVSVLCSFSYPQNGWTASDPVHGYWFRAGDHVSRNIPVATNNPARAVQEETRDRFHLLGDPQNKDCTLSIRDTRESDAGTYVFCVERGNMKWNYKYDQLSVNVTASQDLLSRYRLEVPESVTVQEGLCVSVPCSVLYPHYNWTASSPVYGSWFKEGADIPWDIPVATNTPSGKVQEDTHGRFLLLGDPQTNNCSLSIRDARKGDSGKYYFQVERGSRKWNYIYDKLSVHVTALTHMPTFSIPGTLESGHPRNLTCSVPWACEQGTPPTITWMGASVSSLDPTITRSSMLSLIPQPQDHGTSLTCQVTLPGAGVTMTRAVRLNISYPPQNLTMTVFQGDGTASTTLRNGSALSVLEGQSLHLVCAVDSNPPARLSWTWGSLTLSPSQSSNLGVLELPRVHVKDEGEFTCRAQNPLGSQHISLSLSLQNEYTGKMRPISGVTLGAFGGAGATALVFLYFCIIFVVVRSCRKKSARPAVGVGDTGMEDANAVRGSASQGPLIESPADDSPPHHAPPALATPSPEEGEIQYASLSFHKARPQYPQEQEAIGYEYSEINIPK

B1: S0057 (antibody, V domains shown)
VH: QGQLVQSGAEVKKPGASVKVSCKASGYTFNNYGISWVRQAPGQGLEWMGWISAYNGFTRSTQKFQGRVTLTTDTSTSTAHMELRSLRSDDTAAYYCARDGGDGFDPWGQGTLVTVSS
VL: EIVLTQSPATLSLSPGERATLSCRASQSVSSFLAWYQQKPGQAPRLLIFDASNRATGIPARFSGSGSGTDFTLTISSLEPEDFAVYYCQQRSNWITFGQGTRLEIKRA
In experiment [1], B1 returned a Flow % Gated of 79% and a Flow Fluor MFI of 368. In addition, in experiment [2], the MFI amounted to 29.8. In experiment [3], this molecule showed an MFI of 912. In experiment [4], this molecule returned a % Internalization at 2 hours, U937 cells of 58%; an MFI of pH sensitive dye, Siglec12 complexes, 0 hours of 20; an MFI of pH sensitive dye, Siglec12 complexes, 4 hours of 24.7; an MFI of pH sensitive dye, Siglec12 complexes, 24 hours of 26.5. For the same molecule, in experiment [4], the Siglec12 % surface expression, 0 min stood at 100%; the Siglec12 % surface expression, 15 min amounted to 96%; the Siglec12 % surface expression, 30 min came to 84%; the Siglec12 % surface expression, 45 min was 73%. In experiment [4], this molecule yielded a Siglec12 % surface expression, 60 min of 65%; a Siglec12 % surface expression, 90 min of 47%; a Siglec12 % surface expression, 120 min of 40%.

B2: S0040 (antibody, V domains shown)
VH: QVQLVQSGAEVKKPGASVKVSCKASGYTFTSYDINWVRQATGQGLEWMGWMNPNSGNTGYAQNFQGRVTMTRNTSINTAYMELSSLRSEDTAVYYCTRGGPTLVRGVIIRDAFDFWGQGTMVTVSS
VL: EIVMTQSPATLSVSPGERATLSCRASQSVSNSFAWYQQKPGQAPRLLIYGAFTRATGIPARFSGSGSGTEFTLTISSLQSEDFAVYYCQQYKTWPLTFGGGTKVEIKR
On to B2, for which, in experiment [1], the Flow % Gated turned out to be 6% and the Flow Fluor MFI was found to be 111.

B3: S0103 (antibody, V domains shown)
VH: QVQLVQSGAEVKKPGASVKVSCKASGYTFTSYDINWVRQATGQGLEWMGWMNPNSGNTGYAQNFQGRVTMTRDTSVNTAYMELSSLRSEDTAVYYCARGGPNLVRGVIIRDAFDFWGQGTMVTVSS
VL: EIVMTQSPATLSVSPGERATLSCRASQSVSNSFAWYQQKPGQAPRLLIYGAFTRATGIPARFSGSGSGIEFTLTISSLQSEDFAVYYCQQYKTWPLTFGGGTKVEIKR
In experiment [1], B3 yielded a Flow % Gated of 2% and a Flow Fluor MFI of 97.

B4: S0023 (antibody, V domains shown)
VH: EVQLLESGGGLVQPGGSLRLSCAASGFTFSTFAMSWVRQAPGKGLEWVSTISGGGDSTYYADSVKGRFTISRDNSKNMMSLQMNSLRAVDTAVYYCVKGGGDEYFYYGMDVWGQGTTVTVSS
VL: DIQMTQSPSSLSASVGDRVTITCRASQGIRNDLGWYQQKPGKAPKRLIYSASSLQSGVPSRFSGSGSGTEFTLTISSLQPEDFATYYCLQHNSYPYTFGQGTPLDIKR
In turn, B4 yielded a Flow % Gated in experiment [1] of 3%. The molecule also returned a Flow Fluor MFI in experiment [1] of 93. In addition, the MFI was determined as 29.3 in experiment [2] and 484 in experiment [3]. In experiment [4], this molecule displayed a % Internalization at 2 hours, U937 cells of 32%.

B5: S0042 (antibody, V domains shown)
VH: QVQLVQSGTEVKKPGASVKVSCKVSGYTLSDLSIHWVRQAPGKGLEWMGGFEPEDGEIIYAQKFQGRVIMTEDTSTDTAYMKLSSLRSEDTAVYYCATDKRYFDWLLSGFDYWGQGTLVTVSS
VL: DIQLTQSPSFLSASVGDRVTITCRASQGISSYLAWYQQKPGKAPKLLIFAASTLQSGVPSRFSGSGSGTEFTLTISSLQPEDFATYYCQRLHSYPRTFGQGTKVEIKRA
In experiment [1], B5 displayed a Flow % Gated of 4%. The molecule further displayed a Flow Fluor MFI in experiment [1] of 107. Further, the MFI in experiment [2] is 25.7; in experiment [3] it was 538. Also, the % Internalization at 2 hours, U937 cells in experiment [4] stood at 66%.
